Laboratory results: the supplement of paper PMC9170038

Tested on: MS2 coat protein
Experiment: apparent KD of MS2 coat protein; higher = weaker reporter binding
Conditions: Eterna round: R107
In short: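 Binding of SNAP-549-labelled MS2 coat protein was measured on designed RNA switches transcribed on-chip from Illumina sequencing clusters. The protein rose in twofold steps from 0.7 or 1.5 nM to 3 µM, with 0.8–1.5 h per step early on and 10–20 min per step later, in 100 mM Tris-HCl pH 7.5, 80 mM KCl, 4 mM MgCl2, without or with constant ligand. Each design's apparent KD is the median of fits to its normalised cluster binding curves.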

[1] = input ligand: theophylline 20 uM
[2] = input ligand: tryptophan 2.4 mM
[3] = input ligand: theophylline 2 mM

Sequence	apparent KD of MS2 coat protein (input ligand: arginine 13.2 mM) [nM]	apparent KD of MS2 coat protein [1] [nM]	apparent KD of MS2 coat protein [2] [nM]	apparent KD of MS2 coat protein [3] [nM]	apparent KD of MS2 coat protein (input ligand: none) [nM]
ACACGAGGAUCACCCGUGUCAUGUGGUGAUACCAGUUUACAUGAGAACCCUUGGCAGCAUAACAACAUGAGGAUCACCCAUGUCA [Same State - Theophylline A #1]	24.4	40.4	35		
UUAUAAGUACCGGUCCUCAGAUCCUCAUGACGAGGACCGGUACGGCCGCCACUCGAAACAUGAGGAUCACCCAUGUAAUAACACU [Brourdmod20]	19.2	30.4		24.6	
GCCUAGCAGCGAAGGAGCGACAUCGGCGCAUGCGAGGACAUGAGGAUCACCCAUGUACCAUGUCAGGUAGGUCGCGCUGCUAGGC [EAB NP+V+V2 #6]	17.9	36.4	24.5	23.2	23.4
AAAACACAUGAGGAUCACCCAUGUCGUGAUACCAGUCAACAUGAGGACCCUUGGCAGCAUAAAAUGGGUAACAUGAGGAUCACCC [AstrosEXyTheA#5]	65.3	118	90.9		
CGAAUAUAGACGGCCGCCACUCUACAAACAUGAGGAUCACCCAUGUUCACAUAGUGGAAACACAUGAGGACCGGGUCAUAGGCUU [#19 Same State - Tryptophan B]	23.2	26.9		23.9	
AGCCACUCGAGUGAUCCUCACGAGUGGCAACGAGGACCGGUACGGCCGCCACUCGAAUCAACAUGAGGAUCACCCAUGUAAUAAU [Brourdmod01]	28.2	123	97.7	82.3	76.3
UAUAUAUAUCACGAACUGUGGUGUAUGUCUCGAGGACCGGUACGGCCGCCACUCGCGCGGCCUCACAUGAGGAUCACCCAUGUCC [XTryp A #5]	66.9	132		107	
AACAUGAGGAUCACCCAUGUCUGAACUGAAGGAGCGCUAAAUAAGGCAGGUAGGUCGCGGAAUUUUGUAUAUAUAUAUAUAUGGG [9.F]	6.01	28.5	20.3	25	27.7
AGCAACAAGUCGGCCGCCACUCAAUAAACAUGAGGAUCACCCAUGUAAAUAACAUGAUAAUAAUAGAGGACCGGGACAGUUGCAU [JR_SSTryptoB_Sub015]	13	17.1		15.1	
AGAAUAACACAUGAGGAUCACCCAUGUGAUACCAGCUAGGAAACUAGCCCUUGGCAGCACAUAAGGUGAUCCAGCUGCCAAGAAU [(M1)-(M2)-(T1)-(T2)-(M)'-(T)'_Design1_2/19/17]	65.2	175	102		
ACAUCCAGAUUAAUCGUGGGCAUACUCGAUACCAGUAUUUUAACCUACCCUUGGCAGCGACAUGAGGAUCACCCAUGUGAGAUGA [XTheo A #10]	21.4	25.2	23.8		
UAAUCCGGUCCUCGAUAAUCCUCAUGUAAACGAGGACCGGUACGGCCGCCACUCGAUAACAUGAGGAUCACCCAUGUAAUAAUAA [|T'-M'-Trp-Ms2|_Design14]	47.5	88.3		82.2	
GCCAGACAUGAGGAUCACCCAUGUAGCGAUACCAGCUCUGUUGUGAGCCCUUGGCAGCGCACUGGCAUCGUAGGUGAUCCAAUAA [(T)''-(Ms2)-(Theo)-(T)'-(M)'_Design1]	50.4	114	45.9		
CAAUAUAUAUGAAGGAGCGUCGAAAAUGGGUAAACAUGAGGAUCACCCAUGUAAAGGGAACGACAGGUAGGUCGCAUAUAUAUUG [AstromonsSSArgB#8]	117	305	192	218	168
CCUAUGCAGUCGGCCGCCACUGAGUCCUCAAUAAUAAAUUAAUAAACAUGAGGAUCACCCAUGUACAGGACCGGGACUGUAUAGG [Ex Tryptophan B 12]	165	324		441	
GUUUAAAGGUCGGCCGCCACUGUAGGAUGUGUUCUUUCACAUGAGGAUCACCCAUGUUGUUAUUAUAGGACCGGGAUUGUAGGAC [39MS split4]	22.6	42.3	31.7	35.5	41.4
UGUACCAUGUCGGCCGCCACUCAUGAUAAACCUGAGGAUCACCCUGGUAGCGUCAAAGACGCUAUGAGGACCGGGACAUGGUACU [TryBS Zipper 2]	29.7	35.2	20.5	33	24.4
UAAAAUAUCUGGGUGUAGGUAAUAACAGAUACCAGCCAGAUAACUGGCCCUUGGCAGCUGAAAACAUGAGGAUCACCCAUGUAAA [TheoAS 22 #OpenEnded #Ms2Late]	28.1	50.3	28.6	236	30.7
AUAAAUAUAACCGAUACCAGCCUUAUACAUGAGGAUCACCCAUGUUAUGCUUCCUUUUUUGGCCCUUGGCAGCGGAAAUGGGUAA [AstrosSSTheB#2]	47.6	65.8	65.3		
